{"source": "the supplement of paper PMC5998384", "key": {"HeLa Kyoto [1]": {"tested_on": "HeLa Kyoto", "test": "melting temperature (median over replicates), in situ; higher = more thermally stable"}, "HeLa Kyoto [2]": {"tested_on": "HeLa Kyoto", "test": "thermal stability score vs G1/S (z-score of summed log2 fold changes over temperatures); higher = more thermally stable than in G1/S"}, "HeLa Kyoto [3]": {"tested_on": "HeLa Kyoto", "test": "solubility change mitosis vs G1/S (difference of NP-40 vs SDS log2 ratios) (log2 ratio difference); higher = more soluble in mitosis"}, "HeLa Kyoto [4]": {"tested_on": "HeLa Kyoto", "test": "solubility in G1/S (NP-40 vs SDS abundance) (log2 ratio); higher = more soluble", "settings": "cell cycle stage: G1/S"}, "[5]": {"settings": "cell cycle stage: early G1 (4.5 h after nocodazole release)"}}, "data": [{"sequence": "MSQPGIPASGGAPASLQAQNGAALASGSPYTNGPVQNALLSSQESVSQGYNFQLPGSYPHPIPAKTLNPVSGQSNYGGSQGSGQTLNRPPVASNPVTPSLHSGPAPRMPLPASQNPATTPMPSSSFLPEANLPPPLNWQYNYPSTASQTNHCPRASSQPTVSGNTSLTTNHQYVSSGYPSLQNSFIKSGPSVPPLVNPPLPTTFQPGAPHGPPPAGGPPPVRALTPLTSSYRDVPQPLFNSAVNQEGITSNTNNGSMVVHSSYDEIEGGGLLATPQLTNKNPKMSRSVGYSYPSLPPGYQNTTPPGATGVPPSSLNYPSGPQAFTQTPLGANHLTTSMSGLSLQPEGLRVVNLLQERNMLPSTPLKPPVPNLHEDIQKLNCNPELFRCTLTSIPQTQALLNKAKLPLGLLLHPFKDLVQLPVVTSSTIVRCRSCRTYINPFVSFLDQRRWKCNLCYRVNDVPEEFLYNPLTRVYGEPHRRPEVQNATIEFMAPSEYMLRPPQPPVYLFVFDVSHNAVETGYLNSVCQSLLDNLDLLPGNTRTKIGFITFDSTIHFYGLQESLSQPQMLIVSDIEDVFIPMPENLLVNLNESKELVQDLLKTLPQMFTKTLETQSALGPALQAAFKLMSPTGGRMSVFQTQLPTLGVGALKPREEPNHRSSAKDIHMTPSTDFYKKLALDCSGQQVAVDLFLLSGQYSDLASLGCISRYSAGSVYYYPSYHHQHNPVQVQKLQKELQRYLTRKIGFEAVMRIRCTKGLSIHTFHGNFFVRSTDLLSLPNVNPDAGYAVQMSVEESLTDTQLVSFQSALLYTSSKGERRIRVHTLCLPVVSTLNDVFLGADVQAISGLLANMAVDRSMTASLSDARDALVNAVIDSLSAYRSSVLSNQQPGLMVPFSLRLFPLFVLALLKQKSFQTGTNARLDERIFAMCQVKNQPLVYLMLTTHPSLYRVDNLSDEGALNISDRTIPQPPILQLSVEKLSRDGAFLMDAGSVLMLWVGKNCTQNFLSQVLGVQNYASIPQPMTDLPELDTPESARIIAFISWLREQRPFFPILYVIRDESPMKANFLQNMIEDRTESALSYYEFLLHIQQQVNK [SEC24A]", "values": [{"measurement": "melting temperature", "setting": "HeLa Kyoto [1]; cell cycle stage: G1/S", "value": 49.5, "unit": "°C"}, {"measurement": "melting temperature", "setting": "HeLa Kyoto [1]; cell cycle stage: mitosis", "value": 49.5, "unit": "°C"}, {"measurement": "thermal stability score", "setting": "HeLa Kyoto [2]; [5]", "value": 0.052}, {"measurement": "thermal stability score", "setting": "HeLa Kyoto [2]; cell cycle stage: mitosis", "value": 0.892}, {"measurement": "solubility change mitosis (log2)", "setting": "HeLa Kyoto [3]", "value": -0.0997}, {"measurement": "solubility in G1/S (log2)", "setting": "HeLa Kyoto [4]", "value": 0.00033}]}, {"sequence": "MEAFQELRKPSARLECDHCSFRGTDYENVQIHMGTIHPEFCDEMDAGGLGKMIFYQKSAKLFHCHKCFFTSKMYSNVYYHITSKHASPDKWNDKPKNQLNKETDPVKSPPLPEHQKIPCNSAEPKSIPALSMETQKLGSVLSPESPKPTPLTPLEPQKPGSVVSPELQTPLPSPEPSKPASVSSPEPPKSVPVCESQKLAPVPSPEPQKPAPVSPESVKATLSNPKPQKQSHFPETLGPPSASSPESPVLAASPEPWGPSPAASPESRKSARTTSPEPRKPSPSESPEPWKPFPAVSPEPRRPAPAVSPGSWKPGPPGSPRPWKSNPSASSGPWKPAKPAPSVSPGPWKPIPSVSPGPWKPTPSVSSASWKSSSVSPSSWKSPPASPESWKSGPPELRKTAPTLSPEHWKAVPPVSPELRKPGPPLSPEIRSPAGSPELRKPSGSPDLWKLSPDQRKTSPASLDFPESQKSSRGGSPDLWKSSFFIEPQKPVFPETRKPGPSGPSESPKAASDIWKPVLSIDTEPRKPALFPEPAKTAPPASPEARKRALFPEPRKHALFPELPKSALFSESQKAVELGDELQIDAIDDQKCDILVQEELLASPKKLLEDTLFPSSKKLKKDNQESSDAELSSSEYIKTDLDAMDIKGQESSSDQEQVDVESIDFSKENKMDMTSPEQSRNVLQFTEEKEAFISEEEIAKYMKRGKGKYYCKICCCRAMKKGAVLHHLVNKHNVHSPYKCTICGKAFLLESLLKNHVAAHGQSLLKCPRCNFESNFPRGFKKHLTHCQSRHNEEANKKLMEALEPPLEEQQI [CHAMP1]", "values": [{"measurement": "melting temperature", "setting": "HeLa Kyoto [1]; cell cycle stage: G1/S", "value": 48.8, "unit": "°C"}, {"measurement": "melting temperature", "setting": "HeLa Kyoto [1]; cell cycle stage: mitosis", "value": 50.3, "unit": "°C"}, {"measurement": "thermal stability score", "setting": "HeLa Kyoto [2]; [5]", "value": 1.41}, {"measurement": "thermal stability score", "setting": "HeLa Kyoto [2]; cell cycle stage: mitosis", "value": 3.68}, {"measurement": "solubility change mitosis (log2)", "setting": "HeLa Kyoto [3]", "value": 0.221}, {"measurement": "solubility in G1/S (log2)", "setting": "HeLa Kyoto [4]", "value": -0.327}]}, {"sequence": "MSRRSQRLTRYSQGDDDGSSSSGGSSVAGSQSTLFKDSPLRTLKRKSSNMKRLSPAPQLGPSSDAHTSYYSESLVHESWFPPRSSLEELHGDANWGEDLRVRRRRGTGGSESSRASGLVGRKATEDFLGSSSGYSSEDDYVGYSDVDQQSSSSRLRSAVSRAGSLLWMVATSPGRLFRLLYWWAGTTWYRLTTAASLLDVFVLTRRFSSLKTFLWFLLPLLLLTCLTYGAWYFYPYGLQTFHPALVSWWAAKDSRRPDEGWEARDSSPHFQAEQRVMSRVHSLERRLEALAAEFSSNWQKEAMRLERLELRQGAPGQGGGGGLSHEDTLALLEGLVSRREAALKEDFRRETAARIQEELSALRAEHQQDSEDLFKKIVRASQESEARIQQLKSEWQSMTQESFQESSVKELRRLEDQLAGLQQELAALALKQSSVAEEVGLLPQQIQAVRDDVESQFPAWISQFLARGGGGRVGLLQREEMQAQLRELESKILTHVAEMQGKSAREAAASLSLTLQKEGVIGVTEEQVHHIVKQALQRYSEDRIGLADYALESGGASVISTRCSETYETKTALLSLFGIPLWYHSQSPRVILQPDVHPGNCWAFQGPQGFAVVRLSARIRPTAVTLEHVPKALSPNSTISSAPKDFAIFGFDEDLQQEGTLLGKFTYDQDGEPIQTFHFQAPTMATYQVVELRILTNWGHPEYTCIYRFRVHGEPAH [SUN2]", "values": [{"measurement": "melting temperature", "setting": "HeLa Kyoto [1]; cell cycle stage: G1/S", "value": 52.4, "unit": "°C"}, {"measurement": "melting temperature", "setting": "HeLa Kyoto [1]; cell cycle stage: mitosis", "value": 55.1, "unit": "°C"}, {"measurement": "thermal stability score", "setting": "HeLa Kyoto [2]; [5]", "value": -1.84}, {"measurement": "thermal stability score", "setting": "HeLa Kyoto [2]; cell cycle stage: mitosis", "value": -1.17}, {"measurement": "solubility change mitosis (log2)", "setting": "HeLa Kyoto [3]", "value": 0.229}, {"measurement": "solubility in G1/S (log2)", "setting": "HeLa Kyoto [4]", "value": -0.141}]}, {"sequence": "MSEADGLRQRRPLRPQVVTDDDGQAPEAKDGSSFSGRVFRVTFLMLAVSLTVPLLGAMMLLESPIDPQPLSFKEPPLLLGVLHPNTKLRQAERLFENQLVGPESIAHIGDVMFTGTADGRVVKLENGEIETIARFGSGPCKTRDDEPVCGRPLGIRAGPNGTLFVADAYKGLFEVNPWKREVKLLLSSETPIEGKNMSFVNDLTVTQDGRKIYFTDSSSKWQRRDYLLLVMEGTDDGRLLEYDTVTREVKVLLDQLRFPNGVQLSPAEDFVLVAETTMARIRRVYVSGLMKGGADLFVENMPGFPDNIRPSSSGGYWVGMSTIRPNPGFSMLDFLSERPWIKRMIFKLFSQETVMKFVPRYSLVLELSDSGAFRRSLHDPDGLVATYISEVHEHDGHLYLGSFRSPFLCRLSLQAV [APMAP]", "values": [{"measurement": "melting temperature", "setting": "HeLa Kyoto [1]; cell cycle stage: G1/S", "value": 56.2, "unit": "°C"}, {"measurement": "melting temperature", "setting": "HeLa Kyoto [1]; cell cycle stage: mitosis", "value": 57.2, "unit": "°C"}, {"measurement": "thermal stability score", "setting": "HeLa Kyoto [2]; [5]", "value": 0.325}, {"measurement": "thermal stability score", "setting": "HeLa Kyoto [2]; cell cycle stage: mitosis", "value": 0.806}, {"measurement": "solubility change mitosis (log2)", "setting": "HeLa Kyoto [3]", "value": -0.116}, {"measurement": "solubility in G1/S (log2)", "setting": "HeLa Kyoto [4]", "value": 0.164}]}, {"sequence": "MATQADLMELDMAMEPDRKAAVSHWQQQSYLDSGIHSGATTTAPSLSGKGNPEEEDVDTSQVLYEWEQGFSQSFTQEQVADIDGQYAMTRAQRVRAAMFPETLDEGMQIPSTQFDAAHPTNVQRLAEPSQMLKHAVVNLINYQDDAELATRAIPELTKLLNDEDQVVVNKAAVMVHQLSKKEASRHAIMRSPQMVSAIVRTMQNTNDVETARCTAGTLHNLSHHREGLLAIFKSGGIPALVKMLGSPVDSVLFYAITTLHNLLLHQEGAKMAVRLAGGLQKMVALLNKTNVKFLAITTDCLQILAYGNQESKLIILASGGPQALVNIMRTYTYEKLLWTTSRVLKVLSVCSSNKPAIVEAGGMQALGLHLTDPSQRLVQNCLWTLRNLSDAATKQEGMEGLLGTLVQLLGSDDINVVTCAAGILSNLTCNNYKNKMMVCQVGGIEALVRTVLRAGDREDITEPAICALRHLTSRHQEAEMAQNAVRLHYGLPVVVKLLHPPSHWPLIKATVGLIRNLALCPANHAPLREQGAIPRLVQLLVRAHQDTQRRTSMGGTQQQFVEGVRMEEIVEGCTGALHILARDVHNRIVIRGLNTIPLFVQLLYSPIENIQRVAAGVLCELAQDKEAAEAIEAEGATAPLTELLHSRNEGVATYAAAVLFRMSEDKPQDYKKRLSVELTSSLFRTEPMAWNETADLGLDIGAQGEPLGYRQDDPSYRSFHSGGYGQDALGMDPMMEHEMGGHHPGADYPVDGLPDLGHAQDLMDGLPPGDSNQLAWFDTDL [CTNNB1]", "values": [{"measurement": "melting temperature", "setting": "HeLa Kyoto [1]; cell cycle stage: G1/S", "value": 53.4, "unit": "°C"}, {"measurement": "melting temperature", "setting": "HeLa Kyoto [1]; cell cycle stage: mitosis", "value": 52.4, "unit": "°C"}, {"measurement": "thermal stability score", "setting": "HeLa Kyoto [2]; [5]", "value": 0.0437}, {"measurement": "thermal stability score", "setting": "HeLa Kyoto [2]; cell cycle stage: mitosis", "value": 0.0622}, {"measurement": "solubility change mitosis (log2)", "setting": "HeLa Kyoto [3]", "value": -0.093}, {"measurement": "solubility in G1/S (log2)", "setting": "HeLa Kyoto [4]", "value": 0.0555}]}]}
